Results from publication PMC10397247.

Experiments:
Assay in all cases: two-hybrid library CCNG1;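 note: natural log of median RNA to DNA barcode read ratio; higher means stronger binding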
[1] = target: T1, 4H1373-bA
T1 chain: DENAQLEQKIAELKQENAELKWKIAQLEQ

[2] = target: T2, 4H1449-bA
T2 chain: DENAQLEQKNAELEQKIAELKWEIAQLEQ

[3] = target: T3, 4H1544-bA
T3 chain: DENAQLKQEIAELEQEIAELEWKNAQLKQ

[4] = target: T4, 4H1710-bA
T4 chain: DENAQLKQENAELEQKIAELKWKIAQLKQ

[5] = target: T5, 4H1899-bA
T5 chain: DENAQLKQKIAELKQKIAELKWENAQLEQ

[6] = target: T6, 4H1985-bA
T6 chain: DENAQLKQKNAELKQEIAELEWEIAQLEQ

[7] = target: T7, 4H2691-bA
T7 chain: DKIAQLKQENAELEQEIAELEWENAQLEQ

[8] = target: T8, 4H3162-bA
T8 chain: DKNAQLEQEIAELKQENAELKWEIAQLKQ

[9] = target: T9, 4H3175-bA
T9 chain: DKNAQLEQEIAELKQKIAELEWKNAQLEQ

[10] = target: T10, 4H3277-bA
T10 chain: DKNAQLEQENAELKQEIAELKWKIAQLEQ

[11] = target: T11, 4H3298-bA
T11 chain: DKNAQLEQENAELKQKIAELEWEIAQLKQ

[12] = target: T12, 4H3462-bA
T12 chain: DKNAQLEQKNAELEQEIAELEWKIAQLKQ

[13] = target: T13, 4H3497-bA
T13 chain: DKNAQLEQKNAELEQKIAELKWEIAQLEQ

[14] = target: T14, 4H3613-bA
T14 chain: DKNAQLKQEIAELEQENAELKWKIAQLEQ

[15] = target: T15, 4H3628-bA
T15 chain: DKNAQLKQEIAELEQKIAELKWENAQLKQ

[16] = target: T16, 4H3817-bA
T16 chain: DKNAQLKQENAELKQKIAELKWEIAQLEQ

[17] = target: T17, 4H3858-bA
T17 chain: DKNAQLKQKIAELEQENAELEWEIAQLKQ

[18] = target: T18, 4H3926-bA
T18 chain: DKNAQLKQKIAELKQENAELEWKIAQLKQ

[19] = target: T19, 4H3974-bA
T19 chain: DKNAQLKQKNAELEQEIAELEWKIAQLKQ

[20] = target: T20, 4H570-bA
T20 chain: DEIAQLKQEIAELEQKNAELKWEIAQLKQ

[21] = target: T21, 4H591-bA
T21 chain: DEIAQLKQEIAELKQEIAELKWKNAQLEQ

[22] = target: T22, 4H619-bN
T22 chain: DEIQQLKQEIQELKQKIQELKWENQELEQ

[23] = target: T23, 4H626-bA
T23 chain: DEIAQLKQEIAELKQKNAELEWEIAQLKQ

[24] = target: T24, 4H850-bA
T24 chain: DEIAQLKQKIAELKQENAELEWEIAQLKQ

[25] = target: T25, 4H906-bA
T25 chain: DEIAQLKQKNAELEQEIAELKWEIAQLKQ

[26] = target: T26, 4H2253-bH
T26 chain: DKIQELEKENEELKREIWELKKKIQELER

[27] = target: T27, 4H235-bH
T27 chain: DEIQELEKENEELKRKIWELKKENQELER

[28] = target: T28, 4H2444-bH
T28 chain: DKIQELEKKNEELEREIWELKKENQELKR

[29] = target: T29, 4H2518-bH
T29 chain: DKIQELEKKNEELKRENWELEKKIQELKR

[30] = target: T30, 4H2585-bH
T30 chain: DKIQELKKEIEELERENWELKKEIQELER

[31] = target: T31, 4H264-bH
T31 chain: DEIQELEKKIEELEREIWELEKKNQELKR

[32] = target: T32, 4H2760-bH
T32 chain: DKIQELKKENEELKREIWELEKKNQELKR

[33] = target: T33, 4H2859-bH
T33 chain: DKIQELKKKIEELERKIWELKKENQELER

[34] = target: T34, 4H2931-bH
T34 chain: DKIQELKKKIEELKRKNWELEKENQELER

[35] = target: T35, 4H3041-bH
T35 chain: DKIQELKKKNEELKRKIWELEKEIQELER

[36] = target: T36, 4H3297-bH
T36 chain: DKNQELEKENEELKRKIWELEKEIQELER

[37] = target: T37, 4H3364-bH
T37 chain: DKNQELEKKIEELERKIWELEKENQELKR

[38] = target: T38, 4H3381-bH
T38 chain: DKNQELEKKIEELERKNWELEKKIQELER

[39] = target: T39, 4H349-bH
T39 chain: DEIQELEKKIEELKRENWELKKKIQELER

[40] = target: T40, 4H56-bH
T40 chain: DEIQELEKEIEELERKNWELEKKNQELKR

[41] = target: T41, 4H730-bH
T41 chain: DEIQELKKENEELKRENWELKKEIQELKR

[42] = target: T42, 4H796-bH
T42 chain: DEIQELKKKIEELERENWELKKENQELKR

[43] = target: T43, 4H932-bH
T43 chain: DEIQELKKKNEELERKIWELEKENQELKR

[44] = target: T44, 4H949-bH
T44 chain: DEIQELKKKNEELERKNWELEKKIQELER

[45] = target: T45, P12A-bP
T45 chain: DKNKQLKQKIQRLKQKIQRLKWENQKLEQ

[46] = target: T46, P7A-bP
T46 chain: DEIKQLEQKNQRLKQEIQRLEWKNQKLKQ

[47] = target: T47, 4H2859-bN
T47 chain: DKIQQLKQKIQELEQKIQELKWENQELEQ

[48] = target: T48, 4H2931-bN
T48 chain: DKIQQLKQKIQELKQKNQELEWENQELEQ

[49] = target: T49, 4H3041-bN
T49 chain: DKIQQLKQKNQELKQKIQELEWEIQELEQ

[50] = target: T50, 4H3297-bN
T50 chain: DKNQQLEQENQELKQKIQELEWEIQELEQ

[51] = target: T51, 4H3364-bN
T51 chain: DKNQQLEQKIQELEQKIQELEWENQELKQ

[52] = target: T52, 4H3381-bN
T52 chain: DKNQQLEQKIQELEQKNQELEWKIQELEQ

[53] = target: T53, 4H349-bN
T53 chain: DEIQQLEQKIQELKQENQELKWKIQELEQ

[54] = target: T54, 4H56-bN
T54 chain: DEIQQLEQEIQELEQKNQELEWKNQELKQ

[55] = target: T55, 4H730-bN
T55 chain: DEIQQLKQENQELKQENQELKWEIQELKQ

[56] = target: T56, 4H796-bN
T56 chain: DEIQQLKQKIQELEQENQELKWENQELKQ

[57] = target: T57, 4H932-bN
T57 chain: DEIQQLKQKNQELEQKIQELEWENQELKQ

[58] = target: T58, 4H949-bN
T58 chain: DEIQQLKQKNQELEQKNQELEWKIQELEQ

[59] = target: T59, O11-bH
T59 chain: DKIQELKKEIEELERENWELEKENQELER

[60] = target: T60, P1A-bP
T60 chain: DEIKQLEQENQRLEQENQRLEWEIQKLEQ

[61] = target: T61, P2A-bP
T61 chain: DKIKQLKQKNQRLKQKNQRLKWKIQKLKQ

[62] = target: T62, P3A-bP
T62 chain: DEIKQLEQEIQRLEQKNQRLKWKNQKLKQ

[63] = target: T63, P4A-bP
T63 chain: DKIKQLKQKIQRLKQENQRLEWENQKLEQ

[64] = target: T64, P5A-bP
T64 chain: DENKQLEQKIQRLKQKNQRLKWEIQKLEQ

[65] = target: T65, P6A-bP
T65 chain: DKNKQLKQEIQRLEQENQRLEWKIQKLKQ

[66] = target: T66, P8A-bP
T66 chain: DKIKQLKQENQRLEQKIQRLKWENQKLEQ

[67] = target: T67, P9A-bP
T67 chain: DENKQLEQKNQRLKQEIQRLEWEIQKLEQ

B1: 4H1373-bA (peptide)
chain: DENAQLEQKIAELKQENAELKWKIAQLEQ
interaction score [1]: 0.464
interaction score [2]: -1.22
interaction score [3]: -0.914
interaction score [4]: -0.946
interaction score [5]: -1.03
interaction score [6]: -0.533
interaction score [7]: 0.119
interaction score [8]: -0.314
interaction score [9]: -0.89
interaction score [10]: -0.594
interaction score [11]: -0.776
interaction score [12]: -0.757
interaction score [13]: -1.17
interaction score [14]: 1.71
interaction score [15]: -0.805
interaction score [16]: -0.693
interaction score [17]: 1.36
interaction score [18]: 2.27
interaction score [19]: -0.681
interaction score [20]: -0.799
interaction score [21]: -0.592
interaction score [22]: -0.473
interaction score [23]: -1.61
interaction score [24]: -0.104
interaction score [25]: -1.26

B2: 4H2253-bH (peptide)
chain: DKIQELEKENEELKREIWELKKKIQELER
interaction score [26]: 0.888
interaction score [27]: 0.172
interaction score [28]: -0.045
interaction score [29]: 0.157
interaction score [30]: -1.52
interaction score [31]: 0.653
interaction score [32]: 0.899
interaction score [33]: 0.651
interaction score [34]: -0.195
interaction score [35]: 0.872
interaction score [36]: 0.617
interaction score [37]: 0.0509
interaction score [38]: 0.131
interaction score [39]: -0.0717
interaction score [40]: -2.53
interaction score [41]: -0.37
interaction score [42]: -0.124
interaction score [43]: -0.937
interaction score [44]: -0.427
interaction score [45]: -0.712
interaction score [46]: -1.72

B3: 4H2859-bN (peptide)
chain: DKIQQLKQKIQELEQKIQELKWENQELEQ
interaction score [47]: 0.927
interaction score [48]: -0.613
interaction score [49]: 0.995
interaction score [50]: 0.359
interaction score [51]: -0.713
interaction score [52]: -1.35
interaction score [53]: -1.06
interaction score [54]: 0.857
interaction score [55]: -1.23
interaction score [56]: -1.23
interaction score [57]: -1.18
interaction score [58]: -2.31
interaction score [59]: 0.17

B4: P12A-bP (peptide)
chain: DKNKQLKQKIQRLKQKIQRLKWENQKLEQ
interaction score [45]: -1.39
interaction score [60]: -0.938
interaction score [61]: -1.47
interaction score [62]: 1.06
interaction score [63]: -1.3
interaction score [64]: -1.95
interaction score [65]: -1.09
interaction score [46]: -1.24
interaction score [66]: -1.36
interaction score [67]: -0.693

B5: P1A-bP (peptide)
chain: DEIKQLEQENQRLEQENQRLEWEIQKLEQ
interaction score [60]: -1.8
interaction score [61]: 1.97
interaction score [62]: -0.629
interaction score [63]: -1.23
interaction score [64]: -0.589
interaction score [65]: -0.151
interaction score [46]: -0.745
interaction score [66]: -0.0351
interaction score [67]: -2.64
